± gives the standard error. For part of these data: Variants at the floor of the assay were thinned out.
B1: glmS ribozyme (parent)
chain: AUAAAAGCGCCAGAACUACAGAAAUGUAGUUGACGAGGAGGAGGUUUAUCGAAUUUUCGGCGGAUGCCUCCAAA

Columns and labels:
Details in all cases: with glucosamine-6-phosphate
[1] = variants of: B1; assay: kcat; higher = faster cleavage; RNA array
Method in brief: (§1)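 Barcoded ribozyme variants, transcribed in situ by E. coli RNA polymerase on sequenced MiSeq chips, were followed via a hybridised Cy3 probe at 37 °C. Glucosamine-6-phosphate ranged from 40 μM to 10 mM in HEPES/KCl/Mg(OAc)2 buffer. kobs came from decay fits to per-tile medians, and kcat and KM from weighted Michaelis–Menten fits.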

[2] = variants of: B1; assay: KM; higher = weaker cofactor use; RNA array
Method in brief: as §1

[3] = variants of: B1; assay: self-cleavage kobs at 10000 uM GlcN6P; higher = faster cleavage; RNA array
Method in brief: as §1

[4] = variants of: B1; assay: self-cleavage kobs at 640 uM GlcN6P; higher = faster cleavage; RNA array
Method in brief: as §1

[5] = variants of: B1; assay: self-cleavage kobs at 2500 uM GlcN6P; higher = faster cleavage; RNA array
Method in brief: as §1

[6] = variants of: B1; assay: self-cleavage kobs at 40 uM GlcN6P; higher = faster cleavage; RNA array
Method in brief: as §1

[7] = variants of: B1; assay: self-cleavage kobs at 160 uM GlcN6P; higher = faster cleavage; RNA array
Method in brief: as §1

Variant	kcat [1]	KM [2]	self-cleavage kobs at 10000 uM GlcN6P [3]	self-cleavage kobs at 640 uM GlcN6P [4]	self-cleavage kobs at 2500 uM GlcN6P [5]	self-cleavage kobs at 40 uM GlcN6P [6]	self-cleavage kobs at 160 uM GlcN6P [7]
G9A U55A	2.49e-05 ± 5.6e-07 s⁻¹	1410 ± 200 µM	2.18e-05 ± 9.9e-06 s⁻¹				
A48G C71U	8.1e-05 ± 1.3e-05 s⁻¹		7.03e-05 ± 6.3e-06 s⁻¹	4.86e-05 ± 8.2e-06 s⁻¹	0.000101 ± 1.1e-05 s⁻¹		
G44A A53C	0.000111 ± 2.5e-05 s⁻¹		0.0001 ± 1.9e-05 s⁻¹	4.9e-05 ± 2.1e-05 s⁻¹	5.83e-05 ± 1.3e-05 s⁻¹		
A14U C70U C71G	4.59e-05 ± 1.2e-05 s⁻¹		3.81e-05 ± 1.8e-05 s⁻¹	6.53e-05 ± 1.7e-05 s⁻¹	3.73e-05 ± 1.3e-05 s⁻¹		
A12C U54G G66U	0.00175 ± 0.00085 s⁻¹		0.00164 ± 0.00028 s⁻¹	0.000245 ± 5.3e-05 s⁻¹	0.000495 ± 0.00014 s⁻¹	5.6e-05 ± 1.7e-05 s⁻¹	8.77e-05 ± 1.3e-05 s⁻¹
U30G U31G	0.0304 ± 0.012 s⁻¹		0.036 ± 0.0081 s⁻¹	0.0102 ± 0.0017 s⁻¹		0.00149 ± 0.00022 s⁻¹	
C58A C71U	0.00051 ± 0.0001 s⁻¹	3890 ± 1200 µM	0.000386 ± 3.2e-05 s⁻¹	7.43e-05 ± 7.2e-06 s⁻¹	0.000183 ± 1.6e-05 s⁻¹		4.42e-05 ± 1.2e-05 s⁻¹
U46A A53G	0.00162 ± 0.00057 s⁻¹		0.00261 ± 0.00051 s⁻¹	0.000508 ± 8.1e-05 s⁻¹	0.00104 ± 0.00016 s⁻¹	8.49e-05 ± 1.5e-05 s⁻¹	0.000201 ± 3.7e-05 s⁻¹
C61A C71U	1.05e-05 ± 3.5e-06 s⁻¹			< 1e-05 s⁻¹			
A36G C70U	3.34e-05 ± 3.8e-06 s⁻¹		2.96e-05 ± 1.1e-05 s⁻¹		3.3e-05 ± 1.3e-05 s⁻¹		
G29C A52U C70G	2.41e-05 ± 5.5e-06 s⁻¹					< 1e-05 s⁻¹	
G7A A53U	2.79e-05 ± 1.1e-05 s⁻¹						
U47C U65G	0.00435 ± 0.0005 s⁻¹	3840 ± 610 µM	0.00312 ± 0.0006 s⁻¹	0.000565 ± 0.00011 s⁻¹	0.00189 ± 0.00047 s⁻¹	4.89e-05 ± 1.1e-05 s⁻¹	
A20G C58U C70G	7.18e-05 ± 2.9e-05 s⁻¹			0.000104 ± 2.6e-05 s⁻¹	7.21e-05 ± 1.9e-05 s⁻¹		
A64C C70U	5.98e-05 ± 9.8e-07 s⁻¹	1590 ± 110 µM	5.16e-05 ± 6.8e-06 s⁻¹		3.63e-05 ± 9.6e-06 s⁻¹	< 1e-05 s⁻¹	
U30G A36G C71G	1.69e-05 ± 3.9e-06 s⁻¹		< 1e-05 s⁻¹		< 1e-05 s⁻¹	< 1e-05 s⁻¹	
U65A G66A	0.00068 ± 8.6e-05 s⁻¹	1640 ± 390 µM	0.000577 ± 7.2e-05 s⁻¹	0.000177 ± 2.8e-05 s⁻¹	0.000442 ± 6.9e-05 s⁻¹	3.95e-05 ± 1.7e-05 s⁻¹	6.05e-05 ± 1.3e-05 s⁻¹
U30G C68G	3.09e-05 ± 2.2e-06 s⁻¹	120 ± 57 µM	2.71e-05 ± 1.3e-05 s⁻¹		3.26e-05 ± 1.2e-05 s⁻¹		

Variant	kcat [1]	KM [2]	self-cleavage kobs at 10000 uM GlcN6P [3]	self-cleavage kobs at 640 uM GlcN6P [4]	self-cleavage kobs at 2500 uM GlcN6P [5]	self-cleavage kobs at 40 uM GlcN6P [6]	self-cleavage kobs at 160 uM GlcN6P [7]
U46C C67G	0.000658 ± 5.5e-05 s⁻¹	1560 ± 320 µM	0.000561 ± 6.7e-05 s⁻¹	0.000154 ± 5.6e-05 s⁻¹	0.000431 ± 6.7e-05 s⁻¹		6.94e-05 ± 1.9e-05 s⁻¹
A12G A39C	0.000267 ± 1.7e-05 s⁻¹	2130 ± 300 µM	0.00022 ± 2.2e-05 s⁻¹	6.42e-05 ± 1.1e-05 s⁻¹	0.000144 ± 1.2e-05 s⁻¹		
A15C C67U	0.00143 ± 0.00033 s⁻¹	881 ± 330 µM	0.00139 ± 0.00015 s⁻¹	0.00045 ± 6.9e-05 s⁻¹	0.00177 ± 0.00038 s⁻¹	7.54e-05 ± 8.7e-06 s⁻¹	0.000198 ± 6.2e-05 s⁻¹
G43U U56C	< 1e-05 s⁻¹				< 1e-05 s⁻¹		< 1e-05 s⁻¹
A52G C70A	6.21e-05 ± 4e-06 s⁻¹		5.24e-05 ± 7.9e-06 s⁻¹	5.8e-05 ± 6.8e-06 s⁻¹	6.59e-05 ± 6.1e-06 s⁻¹	2.42e-05 ± 1.2e-05 s⁻¹	4.3e-05 ± 1.3e-05 s⁻¹
G29A G38A C67A	1.79e-05 ± 4.1e-06 s⁻¹						
A12U C68G	0.000191 ± 2.7e-05 s⁻¹	624 ± 230 µM	0.000186 ± 1.6e-05 s⁻¹	8.22e-05 ± 7.3e-06 s⁻¹	0.00016 ± 1.2e-05 s⁻¹		5.38e-05 ± 6.4e-06 s⁻¹
G9U U31C	< 1e-05 s⁻¹		< 1e-05 s⁻¹	< 1e-05 s⁻¹			
C8U C11U C34G A36U	1.07e-05 ± 9.9e-07 s⁻¹						< 1e-05 s⁻¹
G13A G59A	< 1e-05 s⁻¹						
A48U G66A	0.000466 ± 2.8e-05 s⁻¹	7160 ± 740 µM	0.00027 ± 4.1e-05 s⁻¹		0.000123 ± 2.3e-05 s⁻¹		
G29C C67A C71U	0.0001 ± 1.5e-05 s⁻¹		0.000106 ± 1.9e-05 s⁻¹	0.000116 ± 2.2e-05 s⁻¹	7.49e-05 ± 1.9e-05 s⁻¹		
A14U U55G	0.00848 ± 0.0029 s⁻¹	2280 ± 1100 µM	0.0105 ± 0.0021 s⁻¹	0.00176 ± 0.00023 s⁻¹	0.0041 ± 0.00047 s⁻¹	0.000209 ± 3.1e-05 s⁻¹	0.000508 ± 8e-05 s⁻¹
G40A C50U U54C C68U	< 1e-05 s⁻¹		< 1e-05 s⁻¹			< 1e-05 s⁻¹	< 1e-05 s⁻¹
A14U A42U	3.26e-05 ± 1.5e-06 s⁻¹	884 ± 270 µM	3.02e-05 ± 7.7e-06 s⁻¹				
G62C U69C	< 1e-05 s⁻¹			< 1e-05 s⁻¹		< 1e-05 s⁻¹	
A15C G44A	2.81e-05 ± 1.7e-07 s⁻¹	3920 ± 72 µM	2.02e-05 ± 9.6e-06 s⁻¹			< 1e-05 s⁻¹	< 1e-05 s⁻¹
